Experimental data: patent US20060105385, “Xenobiotic related induction of gene expression” (The University of Sydney, published 2006)

B1: XREM-DR6 (dsDNA)
DNA 1: AGGTGAATCACAAGCTGAACTTCT
DNA 2: AGAAGTTCAGCTTGTGATTCACCT
B2: XREM-DR3-1 (dsDNA)
DNA 1: GAATGAACTTGCTGACCCTCT
DNA 2: AGAGGGTCAGCAAGTTCATTC
B3: XREM-DR3-2 (dsDNA)
DNA 1: ATATATTGTTATTGAACTATC
DNA 2: GATAGTTCAATAACAATATAT
B4: Prox-ER6 (dsDNA)
DNA 1: ATATGAACTCAAAGGAGGTCAGTG
DNA 2: CACTGACCTCCTTTGAGTTCATAT

Tests used:
Settings in all cases: label: 32P
[1] = biological target: T1, hPXR-RXR heterodimer (human pregnane X receptor / retinoid X receptor) (UniProt O75469;P19793 O75469:1-434,P19793:1-462); experiment: EMSA; no shift apparent; mutation of the site lowers reporter to 52% of wild type
Experimental: (§1) The hPXR is an orphan nuclear receptor, belonging to the nuclear receptor gene superfamily. […] In order to evaluate the affinity of these putative response elements for HPXR-RXR heterodimers, electromobility shift assays (EMSA) were performed using with in-vitro transcribed/translated hPXR and RXR.

[2] = biological target: T1, hPXR-RXR heterodimer (human pregnane X …); experiment: EMSA; efficient gel shift
Experimental: as §1

[3] = biological target: T1, hPXR-RXR heterodimer (human pregnane X …); experiment: EMSA; no shift apparent; described as functionally important by mutagenesis
Experimental: as §1

T1 sequence (O75469 whole entry, chain 1 of 2): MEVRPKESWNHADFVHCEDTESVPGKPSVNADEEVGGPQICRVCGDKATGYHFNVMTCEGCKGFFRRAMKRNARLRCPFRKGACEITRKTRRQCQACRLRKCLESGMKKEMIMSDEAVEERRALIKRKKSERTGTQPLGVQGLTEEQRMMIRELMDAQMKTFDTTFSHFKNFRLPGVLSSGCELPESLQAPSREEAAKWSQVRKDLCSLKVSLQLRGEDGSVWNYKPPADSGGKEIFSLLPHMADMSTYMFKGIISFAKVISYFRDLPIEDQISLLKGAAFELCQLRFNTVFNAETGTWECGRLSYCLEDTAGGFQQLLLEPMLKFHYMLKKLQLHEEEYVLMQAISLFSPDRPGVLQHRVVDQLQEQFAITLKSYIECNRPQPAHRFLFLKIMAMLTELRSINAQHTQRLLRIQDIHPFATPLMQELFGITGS
T1 sequence (P19793 whole entry, chain 2 of 2): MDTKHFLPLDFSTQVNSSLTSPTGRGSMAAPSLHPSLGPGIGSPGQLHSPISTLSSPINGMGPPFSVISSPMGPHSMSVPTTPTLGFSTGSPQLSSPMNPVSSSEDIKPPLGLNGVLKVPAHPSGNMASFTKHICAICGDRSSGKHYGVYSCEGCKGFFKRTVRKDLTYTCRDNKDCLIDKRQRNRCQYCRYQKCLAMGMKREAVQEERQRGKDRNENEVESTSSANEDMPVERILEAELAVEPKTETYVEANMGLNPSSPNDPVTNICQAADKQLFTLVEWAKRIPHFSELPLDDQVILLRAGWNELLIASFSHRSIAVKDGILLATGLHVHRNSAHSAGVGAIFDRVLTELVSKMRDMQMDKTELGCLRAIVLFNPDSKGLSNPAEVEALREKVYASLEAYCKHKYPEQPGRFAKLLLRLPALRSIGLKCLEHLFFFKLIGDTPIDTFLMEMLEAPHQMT

Binder | binding result [2] | also measured
B1 |  | binding result [1]: no binding
B2 | binds | 
B3 |  | binding result [3]: no binding
B4 | binds | 
